Experimental data reported in EP2226633A1.

Target: heterodimeric LIF receptor (murine gp130 and LIFRα) on transiently transfected Ba/F3 cells (mouse) (UniProt Q00560)
Assay: cell-based or functional assay

Sequence of heterodimeric LIF receptor (murine gp130 and LIFRα) on transiently transfected Ba/F3 cells (mouse) (Q00560 23-917, chain 1 of 2): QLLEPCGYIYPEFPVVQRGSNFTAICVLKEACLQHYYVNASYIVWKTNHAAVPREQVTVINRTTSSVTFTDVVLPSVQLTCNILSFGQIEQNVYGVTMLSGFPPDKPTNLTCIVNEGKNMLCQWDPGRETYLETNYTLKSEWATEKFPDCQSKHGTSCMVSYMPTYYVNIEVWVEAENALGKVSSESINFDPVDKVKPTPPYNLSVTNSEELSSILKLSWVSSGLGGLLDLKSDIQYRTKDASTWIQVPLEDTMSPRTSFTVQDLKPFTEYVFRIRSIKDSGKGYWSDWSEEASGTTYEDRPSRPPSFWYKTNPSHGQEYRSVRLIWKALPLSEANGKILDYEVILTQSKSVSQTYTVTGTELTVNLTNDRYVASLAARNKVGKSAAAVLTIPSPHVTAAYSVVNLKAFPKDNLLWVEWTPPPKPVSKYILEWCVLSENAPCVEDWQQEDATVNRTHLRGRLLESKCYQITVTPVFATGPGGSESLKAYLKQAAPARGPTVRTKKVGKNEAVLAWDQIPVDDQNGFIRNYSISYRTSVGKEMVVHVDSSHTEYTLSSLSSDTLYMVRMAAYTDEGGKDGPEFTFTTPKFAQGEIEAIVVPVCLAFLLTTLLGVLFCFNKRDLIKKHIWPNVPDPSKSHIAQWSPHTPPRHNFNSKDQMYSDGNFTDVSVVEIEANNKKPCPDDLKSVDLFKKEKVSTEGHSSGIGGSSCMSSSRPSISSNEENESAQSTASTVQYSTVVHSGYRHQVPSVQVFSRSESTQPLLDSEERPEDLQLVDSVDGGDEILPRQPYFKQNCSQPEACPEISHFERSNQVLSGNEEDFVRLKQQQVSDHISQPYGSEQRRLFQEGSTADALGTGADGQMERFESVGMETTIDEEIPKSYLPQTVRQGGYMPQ
Sequence of heterodimeric LIF receptor (murine gp130 and LIFRα) on transiently transfected Ba/F3 cells (mouse) (P42703 44-1092, chain 2 of 2, further chain): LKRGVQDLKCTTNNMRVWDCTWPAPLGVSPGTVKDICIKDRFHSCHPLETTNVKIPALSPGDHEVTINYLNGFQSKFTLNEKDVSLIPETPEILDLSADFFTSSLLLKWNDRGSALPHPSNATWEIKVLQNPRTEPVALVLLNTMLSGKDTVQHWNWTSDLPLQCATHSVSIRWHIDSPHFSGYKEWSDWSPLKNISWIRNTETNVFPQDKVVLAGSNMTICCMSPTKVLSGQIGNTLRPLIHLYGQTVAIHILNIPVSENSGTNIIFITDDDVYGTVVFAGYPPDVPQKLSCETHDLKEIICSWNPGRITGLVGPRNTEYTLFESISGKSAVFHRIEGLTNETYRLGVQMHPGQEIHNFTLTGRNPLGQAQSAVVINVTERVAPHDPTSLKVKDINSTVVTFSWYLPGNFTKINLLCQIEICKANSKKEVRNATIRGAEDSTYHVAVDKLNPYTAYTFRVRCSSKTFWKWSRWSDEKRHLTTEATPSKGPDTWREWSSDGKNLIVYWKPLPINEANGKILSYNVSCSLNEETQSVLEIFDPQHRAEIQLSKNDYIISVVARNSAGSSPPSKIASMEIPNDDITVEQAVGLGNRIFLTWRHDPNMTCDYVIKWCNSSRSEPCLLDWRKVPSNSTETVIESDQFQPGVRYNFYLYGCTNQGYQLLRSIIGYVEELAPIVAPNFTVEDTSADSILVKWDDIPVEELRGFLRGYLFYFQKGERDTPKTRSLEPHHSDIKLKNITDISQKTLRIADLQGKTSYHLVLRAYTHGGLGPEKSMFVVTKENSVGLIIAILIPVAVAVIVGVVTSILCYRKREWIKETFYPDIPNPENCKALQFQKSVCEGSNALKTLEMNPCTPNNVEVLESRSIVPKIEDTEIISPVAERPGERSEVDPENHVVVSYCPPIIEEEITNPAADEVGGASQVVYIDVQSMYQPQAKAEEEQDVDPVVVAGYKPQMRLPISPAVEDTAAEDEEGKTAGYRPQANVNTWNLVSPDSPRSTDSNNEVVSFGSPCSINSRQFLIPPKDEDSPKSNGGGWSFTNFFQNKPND

suppression of proliferation of M1 cells (MTT assay, 72 h, 15 nM hS3): 10%
Substance: human EPO splice variant hS3 (complete loss of exon 3) with C-terminal V5/His tag, produced in HEK293 cells (from UniProt P01588 28-193) (ligand)
